B1: target 1 insG 3' of 10,insC 3' of 5 (mixed)
RNA 1: CACCCGUGCAAAAAUGCAGGGGUCUAAAACUGAGCGGAUAACCUCUCUAUGG
RNA 2: GGGAAUGGAUCCACAUCUACGAAUUCGUACCAUAGAGAGGUUGAUCCGCCUCACCGAGAUCGGAAGAGCACACGU
B2: target 1 insU 3' of 5,insA 3' of 3 (mixed)
RNA 1: CACCCGUGCAAAAAUGCAGGGGUCUAAAACUGAGCGGAUAACCUCUCUAUGG
RNA 2: GGGAAUGGAUCCACAUCUACGAAUUCGUACCAUAGAGAGGUUAUCCGUCUACACCGAGAUCGGAAGAGCACACGU
B3: target 1 insC 3' of 16,insC 3' of 15 (mixed)
RNA 1: CACCCGUGCAAAAAUGCAGGGGUCUAAAACUGAGCGGAUAACCUCUCUAUGG
RNA 2: GGGAAUGGAUCCACAUCUACGAAUUCGUACCAUAGACGCAGGUUAUCCGCUCACCGAGAUCGGAAGAGCACACGU
B4: target 1 insC 3' of 20,insU 3' of 5 (mixed)
RNA 1: CACCCGUGCAAAAAUGCAGGGGUCUAAAACUGAGCGGAUAACCUCUCUAUGG
RNA 2: GGGAAUGGAUCCACAUCUACGAAUUCGUACCACUAGAGAGGUUAUCCGUCUCACCGAGAUCGGAAGAGCACACGU
B5: target 1 insU 3' of 20,insU 3' of 12 (mixed)
RNA 1: CACCCGUGCAAAAAUGCAGGGGUCUAAAACUGAGCGGAUAACCUCUCUAUGG
RNA 2: GGGAAUGGAUCCACAUCUACGAAUUCGUACCAUUAGAGAGGUUUAUCCGCUCACCGAGAUCGGAAGAGCACACGU
B6: target 1 insA 3' of 11,insA 3' of 8 (mixed)
RNA 1: CACCCGUGCAAAAAUGCAGGGGUCUAAAACUGAGCGGAUAACCUCUCUAUGG
RNA 2: GGGAAUGGAUCCACAUCUACGAAUUCGUACCAUAGAGAGGUAUAUACCGCUCACCGAGAUCGGAAGAGCACACGU
B7: target 1 insU 3' of 5,insG 3' of 4 (mixed)
RNA 1: CACCCGUGCAAAAAUGCAGGGGUCUAAAACUGAGCGGAUAACCUCUCUAUGG
RNA 2: GGGAAUGGAUCCACAUCUACGAAUUCGUACCAUAGAGAGGUUAUCCGUCGUCACCGAGAUCGGAAGAGCACACGU
B8: target 1 insA 3' of 15,insA 3' of 12 (mixed)
RNA 1: CACCCGUGCAAAAAUGCAGGGGUCUAAAACUGAGCGGAUAACCUCUCUAUGG
RNA 2: GGGAAUGGAUCCACAUCUACGAAUUCGUACCAUAGAGAAGGAUUAUCCGCUCACCGAGAUCGGAAGAGCACACGU
B9: target 1 insC 3' of 19,insG 3' of 18 (mixed)
RNA 1: CACCCGUGCAAAAAUGCAGGGGUCUAAAACUGAGCGGAUAACCUCUCUAUGG
RNA 2: GGGAAUGGAUCCACAUCUACGAAUUCGUACCAUCAGGAGAGGUUAUCCGCUCACCGAGAUCGGAAGAGCACACGU
B10: target 1 C2U,U8C (mixed)
RNA 1: CACCCGUGCAAAAAUGCAGGGGUCUAAAACUGAGCGGAUAACCUCUCUAUGG
RNA 2: GGGAAUGGAUCCACAUCUACGAAUUCGUACCAUAGAGAGGUUACCCGCUUACCGAGAUCGGAAGAGCACACGU
B11: target 1 insG 3' of 20,insC 3' of 19 (mixed)
RNA 1: CACCCGUGCAAAAAUGCAGGGGUCUAAAACUGAGCGGAUAACCUCUCUAUGG
RNA 2: GGGAAUGGAUCCACAUCUACGAAUUCGUACCAGUCAGAGAGGUUAUCCGCUCACCGAGAUCGGAAGAGCACACGU
B12: target 1 insU 3' of 7,insG 3' of 7 (mixed)
RNA 1: CACCCGUGCAAAAAUGCAGGGGUCUAAAACUGAGCGGAUAACCUCUCUAUGG
RNA 2: GGGAAUGGAUCCACAUCUACGAAUUCGUACCAUAGAGAGGUUAUCUGCGCUCACCGAGAUCGGAAGAGCACACGU
B13: target 1 U10A,G12A (mixed)
RNA 1: CACCCGUGCAAAAAUGCAGGGGUCUAAAACUGAGCGGAUAACCUCUCUAUGG
RNA 2: GGGAAUGGAUCCACAUCUACGAAUUCGUACCAUAGAGAGAUAAUCCGCUCACCGAGAUCGGAAGAGCACACGU

In the data set the target is T1, EsCas13d, nuclease-dead (Eubacterium siraeum, UniProt B0MS50, R295A;H300A;R849A;H854A).
T1 sequence: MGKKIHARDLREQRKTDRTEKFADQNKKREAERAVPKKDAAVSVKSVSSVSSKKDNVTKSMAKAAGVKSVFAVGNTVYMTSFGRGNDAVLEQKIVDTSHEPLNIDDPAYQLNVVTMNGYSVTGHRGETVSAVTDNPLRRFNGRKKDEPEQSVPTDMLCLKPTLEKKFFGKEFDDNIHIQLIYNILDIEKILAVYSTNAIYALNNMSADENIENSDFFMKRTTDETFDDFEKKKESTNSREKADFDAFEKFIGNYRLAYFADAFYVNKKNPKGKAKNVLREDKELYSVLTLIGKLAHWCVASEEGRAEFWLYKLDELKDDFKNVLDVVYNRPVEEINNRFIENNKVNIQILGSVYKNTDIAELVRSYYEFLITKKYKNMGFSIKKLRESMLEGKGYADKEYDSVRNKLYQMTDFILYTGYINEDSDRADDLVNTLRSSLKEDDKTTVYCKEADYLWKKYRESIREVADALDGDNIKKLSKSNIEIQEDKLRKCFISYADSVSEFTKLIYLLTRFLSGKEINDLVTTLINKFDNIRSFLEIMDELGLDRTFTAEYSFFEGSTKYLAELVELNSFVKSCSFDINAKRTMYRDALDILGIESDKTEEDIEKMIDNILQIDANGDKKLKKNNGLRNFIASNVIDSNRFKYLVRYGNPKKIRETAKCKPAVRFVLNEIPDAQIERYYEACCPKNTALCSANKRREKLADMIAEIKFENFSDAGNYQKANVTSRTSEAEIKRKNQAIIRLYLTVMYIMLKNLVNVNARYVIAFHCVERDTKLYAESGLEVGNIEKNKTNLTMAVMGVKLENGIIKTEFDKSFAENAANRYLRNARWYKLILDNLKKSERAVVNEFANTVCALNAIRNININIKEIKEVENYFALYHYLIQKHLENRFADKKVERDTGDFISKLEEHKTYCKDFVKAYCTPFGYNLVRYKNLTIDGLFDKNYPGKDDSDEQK
Nature of the data set: crRNA (strand 1, pre-loaded); Mg2+; 40 mM Tris-HCl pH 7.5, 150 mM NaCl, 6 mM MgCl2, 1 mM DTT, 0.1% Tween-20, 0.2 mg/ml BSA; 25 C; 10 min per concentration, then washed. The settings on record: tags: His6-TwinStrep-SUMO cleaved; N-terminal SNAP kept (SNAP-Surface 488); label: 3' end held by stalled T7 RNA polymerase.
The Kd is the constant that tells how readily two partners part at equilibrium. Higher therefore signals weaker binding. In turn, B1 had a dissociation constant (Kd) of 46 ± 8 nM.

Regarding B2, binding was put at a Kd of 19.9 ± 1.7 nM.

Molecule B3 displayed a Kd of 84 ± 27 nM.

B4 came in with a Kd of 8.6 ± 0.9 nM.

Take B5: the Kd was found to be 11.5 ± 0.7 nM.

B6 came in with a Kd of 39.7 ± 3.3 nM.

As to B7, the affinity, expressed as Kd, was 12.7 ± 0.9 nM. This Kd lies about 3.1-fold lower than the previous one.

Take B8: the Kd stood at 42 ± 5 nM.

The molecule B9 displayed a Kd of 89 ± 19 nM.

In turn, B10 returned a Kd of 10.1 ± 0.8 nM. Against the preceding molecule, the Kd is about 8.8-fold lower.

The molecule B11 displayed an equilibrium dissociation constant (Kd) of 59 ± 10 nM.

B12: the Kd was 9.1 ± 0.6 nM.

On to B13, for which the Kd amounted to 5.86 ± 0.25 nM.

For the origin of these results see publication PMC10786891, “Massively parallel profiling of RNA-targeting CRISPR-Cas13d”.
